Patent US20230416329A1 (INSTITUTE OF MATERIA MEDICA CHINESE ACADEMY OF MEDICAL …, published 2023)
Bridge positions count the residues as written; N and C are the ends. Ends that are not written are not given here.

B1: BT68 (peptide)
peptide: ACTKSNPPQCR
modifications: disulfide 2-10 (inferred)
B2: BT64 (peptide)
peptide: RCTKSNPPQCQ
modifications: disulfide 2-10 (inferred)
B3: BT65 (peptide)
peptide: RCTKSLPPQCS
modifications: disulfide 2-10 (inferred)
B4: BT45 (peptide)
peptide: RCTKSIPPICF
modifications: disulfide 2-10 (inferred)
notes: also called truncated monocyclic SFTI-1 mutant
B5: BT62 (peptide)
peptide: RCTKSIPPHCF
modifications: disulfide 2-10 (inferred)
B6: BT61 (peptide)
peptide: RCTRSIPPHCW
modifications: disulfide 2-10 (inferred)
B7: BT9 (peptide)
peptide: CGRATKSIPPICF
modifications: disulfide 1-12 (inferred)
B8: BT57 (peptide)
peptide: CGRWTKSIPPICF
modifications: disulfide 1-12 (inferred)
B9: BT10 (peptide)
peptide: CGRATKSIPAICF
modifications: disulfide 1-12 (inferred)
B10: BT77 (peptide)
peptide: CKRATKSIPPICF
modifications: disulfide 1-12 (inferred)
B11: BT26 (peptide)
peptide: CGRAAKSIPPICF
modifications: disulfide 1-12 (inferred)
B12: BT52 (peptide)
peptide: CGRFTKSIPPICF
modifications: disulfide 1-12 (inferred)
B13: BT18 (peptide)
peptide: CGRATRSIPPICY
modifications: disulfide 1-12 (inferred)
B14: BT47 (peptide)
peptide: CGRSTKSIPPICF
modifications: disulfide 1-12 (inferred)
B15: BT79 (peptide)
peptide: CQRATKSIPPICF
modifications: disulfide 1-12 (inferred)
B16: BT19 (peptide)
peptide: CGRATRSIPPICA
modifications: disulfide 1-12 (inferred)
B17: BT67 (peptide)
peptide: CARATKSIPPICF
modifications: disulfide 1-12 (inferred)
B18: BT48 (peptide)
peptide: CGRLTKSIPPICF
modifications: disulfide 1-12 (inferred)
B19: BT59 (peptide)
peptide: CGRPTKSIPPICF
modifications: disulfide 1-12 (inferred)
B20: BT53 (peptide)
peptide: CGRYTKSIPPICF
modifications: disulfide 1-12 (inferred)
B21: BT22 (peptide)
peptide: CGRATRAIPPICF
modifications: disulfide 1-12 (inferred)
B22: BT76 (peptide)
peptide: CRRATKSIPPICF
modifications: disulfide 1-12 (inferred)
B23: BT78 (peptide)
peptide: CERATKSIPPICF
modifications: disulfide 1-12 (inferred)
B24: BT27 (peptide)
peptide: CGRATKAIPPICF
modifications: disulfide 1-12 (inferred)
B25: BT49 (peptide)
peptide: CGRITKSIPPICF
modifications: disulfide 1-12 (inferred)
B26: BT16 (peptide)
peptide: CGRATKSLPAICF
modifications: disulfide 1-12 (inferred)
B27: BT17 (peptide)
peptide: CGRATRSIPPICF
modifications: disulfide 1-12 (inferred)
B28: BT15 (peptide)
peptide: CGRATRSIPPACF
modifications: disulfide 1-12 (inferred)
B29: BT24 (peptide)
peptide: CGTATKSIPPICN
modifications: disulfide 1-12 (inferred)
B30: BT75 (peptide)
peptide: CSRATKSIPPICF
modifications: disulfide 1-12 (inferred)
B31: BT58 (peptide)
peptide: CGRETKSIPPICF
modifications: disulfide 1-12 (inferred)
B32: BT54 (peptide)
peptide: CGRQTKSIPPICF
modifications: disulfide 1-12 (inferred)
B33: BT72 (peptide)
peptide: CLRATKSIPPICF
modifications: disulfide 1-12 (inferred)
B34: BT56 (peptide)
peptide: CGRHTKSIPPICF
modifications: disulfide 1-12 (inferred)
B35: BT55 (peptide)
peptide: CGRNTKSIPPICF
modifications: disulfide 1-12 (inferred)
B36: BT73 (peptide)
peptide: CIRATKSIPPICF
modifications: disulfide 1-12 (inferred)
B37: BT51 (peptide)
peptide: CGRVTKSIPPICF
modifications: disulfide 1-12 (inferred)
B38: BT71 (peptide)
peptide: CVRATKSIPPICF
modifications: disulfide 1-12 (inferred)
B39: BT21 (peptide)
peptide: CGRATRSAPPICF
modifications: disulfide 1-12 (inferred)
B40: BT25 (peptide)
peptide: CGTATKSIPPICF
modifications: disulfide 1-12 (inferred)
B41: BT60 (peptide)
peptide: CGRGTKSIPPICF
modifications: disulfide 1-12 (inferred)
B42: BT66 (peptide)
peptide: CPRATKSIPPICF
modifications: disulfide 1-12 (inferred)
B43: BT5 (peptide)
peptide: CGRATKSIPPICFPD
modifications: disulfide 1-12 (inferred)
B44: BT7 (peptide)
peptide: CGAATKSIPPICFPD
modifications: disulfide 1-12 (inferred)
B45: BT6 (peptide)
peptide: CGSATKSIPPICFPD
modifications: disulfide 1-12 (inferred)
B46: BT63 (peptide)
peptide: RCTKSIPPQCH
modifications: disulfide 2-10 (inferred)

Target: bovine trypsin (bovine, UniProt P00760 24-246)
Assay: trypsin inhibition, BApNA substrate
Method: The substrates N-succinyl-Ala-Ala-Pro-Phe-p-nitroaniline (AAPFpNA), Nα—Benzoyl-L-arginine-4-nitroaniline hydrochloride (BApNA) and N-succinyl-[…] (AAApNA) are used in competitive binding reaction to determine the inhibitory activities against α-chymotrypsin, bovine trypsin, and porcine pancreatic elastase, respectively. Experiments for α-chymotrypsin and bovine trypsin inhibition were measured in 20 mM CaCl₂, 50 mM Tris-HCl buffer (pH 7.8), and that for porcine elastase inhibition was measured in 50 mM Tris-HCl buffer (pH 8.0). The concentration of the peptide was measured using optical density (OD) at 280 nm. The Michaelis constant (Kₘ) of the enzyme hydrolysis substrate is calculated from the initial rate of substrate hydrolysis at 405 nm. The absorbance value of the substrate was measured at 405 nm after complete hydrolysis. All data were processed using nonlinear regression.
(1) Added a total 190 μL of reaction buffer (20 mM CaCl₂ and 50 mM Tris-HCl, pH 7.8) along with different concentrations of anti-trypsin peptides (BTs) into the pre-cooled 96-well plate, followed by preheating at 37° C., and spined down at 500 rpm for 5 min. Next added 10 μL of 1 μM trypsin, incubated at 37° C., and then spined down at 500 rpm for 10 min. Finally, added 5 μL of 50 mM BApNA, and mixed by centrifugation at 500 rpm for 1 min. […] The experiment was performed in triplicate. The blank control only contained the reaction buffer and the substrate as the minimum absorption value (Min OD_{405 nm}). The negative control only contained the reaction buffer, the enzyme and the substrate as the maximum absorption value (Max OD_{405 nm}). […] (2) In the reaction system of 205 μL, the final concentrations of trypsin and BApNA were 50 nM and 1.22 mM, respectively. [0456] (3) Data statistics

Chain of bovine trypsin (P00760 24-246): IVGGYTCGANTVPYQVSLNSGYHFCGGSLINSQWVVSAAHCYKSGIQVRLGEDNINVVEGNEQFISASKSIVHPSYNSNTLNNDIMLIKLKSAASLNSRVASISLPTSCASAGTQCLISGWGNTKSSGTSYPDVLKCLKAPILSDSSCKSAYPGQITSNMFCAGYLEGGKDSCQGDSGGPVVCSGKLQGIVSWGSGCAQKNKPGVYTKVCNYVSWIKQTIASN

| IC50 [nM] | Ki [nM] | fold decrease in inhibitory activity compared to BT9 [fold] | Binder |
| --- | --- | --- | --- |
| 2430 | 520 | – | B1 |
| 3430 | 730 | – | B2 |
| 620 | 130 | – | B3 |
| 30 | 6.4 | – | B4 |
| 70 | 10 | – | B5 |
| 890 | 190 | – | B6 |
| 70 | 10 | – | B7 |
| 130 | 30 | – | B8 |
| 110 | 20 | – | B9 |
| 40 | 8.5 | – | B10 |
| 2500 | 530 | – | B11 |
| 130 | 30 | – | B12 |
| 39400 | 8380 | – | B13 |
| 50 | 10 | – | B14 |
| 50 | 10 | – | B15 |
| 43400 | 9250 | – | B16 |
| 50 | 10 | – | B17 |
| 180 | 40 | – | B18 |
| 26300 | 5590 | – | B19 |
| 120 | 30 | – | B20 |
| 4680 | 1000 | – | B21 |
| 50 | 10 | – | B22 |
| 30 | 6.4 | – | B23 |

| IC50 [nM] | Ki [nM] | fold decrease in inhibitory activity compared to BT9 [fold] | Binder |
| --- | --- | --- | --- |
| 280 | 60 | – | B24 |
| 500 | 110 | – | B25 |
| 910 | 190 | – | B26 |
| 580 | 120 | ~12 | B27 |
| 4490 | 960 | – | B28 |
| 33900 | 7220 | – | B29 |
| 40 | 8.5 | – | B30 |
| 120 | 30 | – | B31 |
| 60 | 10 | – | B32 |
| 130 | 30 | – | B33 |
| 110 | 20 | – | B34 |
| 300 | 60 | – | B35 |
| 120 | 30 | – | B36 |
| 410 | 90 | – | B37 |
| 110 | 20 | – | B38 |
| 18100 | 3850 | – | B39 |
| 970 | 210 | – | B40 |
| 430 | 90 | – | B41 |
| 60 | 10 | – | B42 |
| 160 | 30 | – | B43 |
| 230 | 50 | – | B44 |
| 290 | 60 | – | B45 |
| 90 | 20 | – | B46 |
